Reference: paper doi:10.1101/2023.10.19.563106

Biological target: Escherichia coli CTP synthase (ecCTPS), wild type (Escherichia coli) (UniProt P0A7E5)
Experiment: cryo-EM structure

stoichiometry N: 4
Substance: Escherichia coli CTP synthase (ecCTPS), wild type (from UniProt P0A7E5 1-545) (enzyme)
